Experiment: label from the status in PepcDB records

Row | Sequence | protein production
1 | MEKQKEVQKEYEEYQYMLDTETWKKELSQFKLSSSEKISKNPKVSIIIANYNNAPYLKKMMDSLVQQTIGIEQLQVMFIDDCSTDHSLKVIEPYLERYPNIEIYQLLENTGGAHGPRNVGIVNARGEYSVFLDADDWYDLNALKYLSDLLDDSHDDFAVSGLIQSTDGHLMLKSKPYYVDGSFKNRSIQELPAEFYGWLGPQAIMLRTSLIHNNNLHFVNQRVADDVLFFYEAMRFSKTITQGERLTTYLNRDADNESLSKSINRTFMLSWLRALSYINQQFPDDLSKERMLARRLEWLIYDFCIRRNTGYPFSKRRLQDFKVQMDQYLGELNFDPSPYFRSDVRQIIWTFLQTNDIDGLYWFIQCQSIRWVLVNRFGYVSKTERSYYYPRLLKRFPAVRMNAYAEATQREGNTLSLNVYTHQKITGFEIKELKNPFETRQRLAFKKISETSYQVELPEKFSNKESRFTIVFDNYLEIGVKDFSKFFALEHHHHHH | failed
2 | MEKREEAGEYHSKDFEWEFLKNIVENDPSLSHHLHHHHQNLSKYLPDSQPWQDFHSRHSSGKFFKERRYLLKEFPELVSCGENSKLLEIGCGNGSTVLPILRGSKNITVYACDCSSDALVRTKENIDRAISSVDNFHSFCCDFSTSEFPDWVACDRCRDKFMLNHSGGSESKHCIGGVDFVTLIFTLSAVPKERMPRAIKECFAVLKPGGLLLFRDYGLYDMTMLRFEPEKRVGFREYVRSDGTLSYFFCLDTARKLFTDAGFIEVELEYCCVKAVNRRKGKDMYRVWVHGKFQKPFSN | failed
3 | MEKRQFMKMKEKLKRACFEFAVSNRYLYNLAKRILDSSPKLQKIKEFLIPKEFLIPAANLSNVFEPETSFQNSGRFFKKIKTCFNGGLPPENLDQDLAIINQRWNVNNEGYQIFSHRKILGPFLVRGRRLVHGEVRRYVDPIFHLQREFNASVVRILNRTTEDLRVLSSKNDAIEGKLNTVEEKISGTVRKDEFKEFKDKIMINHDKLQTDFYELKNSLTKNLEELSSTVESIKAKIDTAEEKISGTDIHTSDYYFLFEEKFRGSRELVKARLRRYIPYFKGCRRVLDIGCGRGEFLELCKEEGIESIGVDINEDMIKFCEGKFNVVKSDAIEYLKSLPDKYLDGVMISHFVEHLDPERLFELLSLCYSKMKYSSYIVIESPNPTSLYSLINFYIDPTHKKPVHPETLKFILEYLGFRDVKIEFFEECEELTKLAKIDSNTVSEEVIRVINENIEKLNRILFGPQDYAIIAKK | failed
4 | MEKSKKLPFEVDRRSVYKCVQCGTCRSVCPVFDVVGWESANTRGRMLIIKSLIEGRPPSEDVLSSLASCTTCGICAAKCPAGANPPEVVEAARAQLVKCGVTTDAQLEHHHHHH | failed
5 | MEKSSFAAANMTIMSEPTTPTSQAHDSGASANVIATVETEIRQTARFPTRWTAISSALVVLLCVLALILVPIPFVARSPGQTVNLLSTNERGKPMIQVDGLTTRHGEGEMRMTTVSITRADSRLSMAEALVAHLRADHDVLQREAIYPPGRSPQQVDADESYMMDTSERDAAVAALRAAGQPVTEMPMVSAVSAAGPAHGKLAPGDLIEKVDGKPMASVLDVGKAVRKHTVGDTVVFVVLRNSSVKTIAVTTVSSVSDRRAPAVGVTIDTGYRYTPTITYNIPGDIVGPSAGLAMALSIYQMVAPNDLIGSLRIAGTGGISPDGNVVAIGGIQEKIAGAERDGAKIFLVPAGNCRDISGVETSMRLVKVSSLKDAIAAIQKIRAGGTGIPHC | failed
6 | MEKVTFVRIADLENHNNDGGFWTVIDGKVYDIKDFQTQSLTENSILAQFAGEDPVVALEAALQFEDTRESMHAFCVGQYLEPDQEGVTIP | not failed
7 | MEKYEELFARIKEKAKLIDEKIFELIPEKDPRVLYEAARHYPLAGGKRVRPFVVLTSTEAVGGDPLRAIYPAVAIELIHNYSLVHDDIMDMDETRRGKPTVHRIWGVNMAILAGDLLFSKAFEAVARAEIPPEKKARVLEVIVKASNELCEGQARDLEFEKKSTVTIEEYMEMISGKTGALFEASAKVGGIIGTDNEEYIKALSSWGRNVGIAFQIWDDVLDLIADEKKLGKPVGSDIRKGKKTLIVAHFFENADEKDKQRFLKIFGKYAGDVKGRGIIEEDIKSDVMEAIDLLKKYGSIDYAAEIAKDMIKKANEALRILPKSKARMDLELLAKFIVEREY | not failed
8 | MEKYIFWVTAIFQIGVFALMLYYLFIALFGFYKKKDTKTFEPQKKFAMLVAAHNEEVVIENLVESLKHLDYPKELYDIFVIADNCTDNTAKIARAAGANVFERFNKEKRGKGFALEWMFDKIFKMDTHYDGIAVFDADNLVDKNFLKEMNNKMCEGFKVVQGYIDSKNPQDSWITESYAIAFTSANRMLQLAKSNIGLSAQIGGTGFVIDTATLKKLGWGATCLTEDLEFSCKLILNGEKVGWAHDAIIYDEKPLTLKASWNQRKRWMQGFADVATRYGMKLLKKSIKDRSLVAFDCTLYVMQPFVTLATGLAGLLTFVQIRAVDGLGIFVISYLFNATVWQLFCVFQFLLTPFALLFDKKMSGKLFVVLGLYACNVFIQPYLINQLGILDNIMLLTLFNVAYIGIFLIGTLLFLGKRNFQIFYRYLIYPLYILTWIPITIQGIIDKDKKEWSHTKHVRQIGIYEV | failed
9 | MELDGKAPSHRNLNVQTWSTAEGAKVLFVEARELPMFDLRLIFAAGSSQDGNAPGVALLTNAMLNEGVAGKDVGAIAQGFEGLGADFGNGAYKDMAVASLRSLSAVDKREPALKLFAEVVGKPTFPADSLARIKNQMLAGFEYQKQNPGKLASLELMKRLYGTHPYAHASDGDAKSIPPITLAQLKAFHAKAYAAGNVVIALVGDLSRSDAEAIAAQVSAALPKGPALAKIEQPAEPKASIGHIEFPSSQTSLMLAQLGIDRDDPDYAAVSLGNQILGGGGFGTRLMSEVREKRGLTYGVYSGFTPMQARGPFMINLQTRAEMSEGTLKLVQDVFAEYLKNGPTQKELDDAKRELAGSFPLSTASNADIVGQLGAMGFYNLPLSYLEDFMRQSQELTVEQVKAAMNKHLNVDKMVIVSAGPTVAQKPLEHHHHHH | not failed
10 | MELISIIVPVYNGEIYIGRCLDSILEQTYQNLEIIIIDDGSSDRTGDICEKYFLEDRRIKYFYQENRGQSVARNNGVLRCTGDWIAFLDSDDVYLPYSIEVMYNIQKATNADIVLTSIGNFNNTYNTSINSQYLKEIKLYTLEVALEEMYYGKTYGVSPLAKLYPRSNLLSNPYPEGKIHEDMDTTFKLISCASKIAVCDIVTAVVYFSDNSTTRTKFNERMLYFFEAIQNNIVFINLNFPHNTSLISAVIYNEVFGGIDICGKMIDFKLYDTVDYYRKKYRKYFKTILFNNRISVKEKVKYILFISSIRYFTIVRKIYNLRLSRNGLEHHHHHH | failed
11 | MELKDYYAIMGVKPTDDLKTIKTAYRRLARKYHPDVSKEPDAEARFKEVAEAWEVLSDEQRRAEYDQMWQHRNDPQFNRQFHHGDGQSFNAEDFDDIFSSIFGQHARQSRQRPATRGHDIEIEVAVFLEETLTEHKRTISYNLPVYNAFGMIEQEIPKTLNVKIPAGVGNGQRIRLKGQGTPGENGGPNGDLWLVIHIAPHPLFDIVGQDLEIVVPVSPWEAALGAKVTVPTLKESILLTIPPGSQAGQRLRVKGKGLVSKKQTGDLYAVLKIVMPPKPDENTAALWQQLADAQSSFDPRKDWGKA | failed
12 | MELKMNDINQHSFLKLGSVRHIQSEQEALEIAKEMANQLNQFARNPSYNKTVPYDQARLISEAGLTAIIVPKQFGGLGASISTLVNVVKIISSADGGVGQLLQIHFTMFRGILTGYDDEIRDQLLADVLSGKRLGNALAEVGGKDKFQHKTRVERNSEGKLILNGSKFYSTGSLLAEWISLFAGSDDGPVSILIHRDTQGVELLNDWDAMGQNNSVSGTVNFKDVVVDERYVAKRNTGGLGTVLRTGLTWPQILHAAMDTGIAKGALQGGIDYLQHHARPWVESGVDSPTHESHIIKQIGEFAVLVRSAEALLDRSAQIFEQHLANVEDEDLQTELILSVAATRSQSDHASLKISSEIFGLLGASSTLSKWNLDRFWRNARTHTTHDPIRWRLYHVGNYYLNNIPPGEYNSVLLKKQAENVTKFSK | failed
13 | MELLKHLSQRQYIDGEWVESANKNTRDIINPYNQEVIFTVSEGTKEDAERAILAARRAFESGEWSQETAETRGKKVRAIADKIKEHREALARLETLDTGKTLEESYADMDDIHNVFMYFAGLADKDGGEMIDSPIPDTESKIVKEPVGVVTQITPWNYPLLQASWKIAPALATGCSLVMKPSEITPLTTIRVFELMEEVGFPKGTINLILGAGSEVGDVMSGHKEVDLVSFTGGIETGKHIMKNAANNVTNIALELGGKNPNIIFDDADFELAVDQALNGGYFHAGQVCSAGSRILVQNSIKDKFEQALIDRVKKIKLGNGFDADTEMGPVISTEHRNKIESYMDVAKAEGATIAVGGKRPDRDDLKDGLFFEPTVITNCDTSMRIVQEEVFGPVVTVEGFETEQEAIQLANDSIYGLAGAVFSKDIGKAQRVANKLKLGTVWINDFHPYFAQAPWGGYKQSGIGRELGKEGLEEYLVSKHILTNTNPQLVNWFSK | not failed
14 | MELLKIDCLGKSLRLEGSLAGWQLLFWDNNLVSQKAASVDNGGLKVHQFELTQHHSQLASDSGEAQVLENKILVRLETDVVWQPFRFDYRLLVDEEVIAQGTRTEKDIERQMPEIPVTAPQKFSFVGLASLGFKLLKSAKVIKVVLAGASVAAYSWLFSFQFALALIACLVFHEYGHIRAMKYFGMKTKGIYLIPFMGGLALSDEKINTRWQDVVISIMGPTFGLLMSVGSLIAYHFTDNIFFAGLAAFNALLNLFNLLPILPLDGGHILKSISFSMNSIMGLIACVIGAAFGVYISYTLGLALLGFLLLIGSLEIVFEWRSRHQSHLLPLDRYGQIFSTIWYLATVAALVGIIWHLAGTGDDMLSLPLQILRS | failed
15 | MELQLAIDLLNKEDAAELANKVKDYVDIVEIGTPIIYNEGLPAVKHMADNISNVKVLADMKIMDAADYEVSQAIKFGADVITILGVAEDASIKAAIEEAHKNNKQLLVDMIAVQDLEKRAKELDEMGADYIAVHTGYDLQAEGQSPLESLRTVKSVIKNSKVAVAGGIKPDTIKDIVAESPDLVIVGGGIANADDPVEAAKQCRAAIEGK | failed
16 | MELTLALVIFVICYLLIMAETFNRAVVACLGGVLMLFVGIYPLDAAFLQYIDWHTITLLLSMMILVSITSQSGFFEYMAIRLAQKVDGRPIPLLIVVAGITAIGSAFLNNVTMVLLIVPIVLTLTNLLKLNAVPFLLTLVMASNIGGTATLIGDPPNLMIGQAVAHLSFNDFLLHLGPIVAVIFFVVLIGLILYYRRQLSVTAEDRSRLRGVDPTSYLKNRPLLIKSMTVLTLTTIGFTIQPFLPVELTSIAMAGALLLMLITQNEQDMEGVFRSVEWVTLFFFIGLFMLVGGIKEVGIIDEIAKAIIYYTEGDIPKTSLFILWGSGILSGFVDNIPFVAAMIPVILEFQEYGVGELDPLWWSLALGACLGGNATVIGATANVIVAGLAVQAKQSFSYLEFLKVGAPVALVSFLLCTVYLYIRYLIYF | failed
17 | MELVAGSYEQVLFGFTVQRGPAKSGHQETWTPVADFTHHSHTASLSVLASNSRYVVSGSKDETIHIYDMKRKVEHGALVHHAGTVTCLKFHGNQHLISGAEDGHICIWDVKRWKCLKTFKAHRGHVTFLSIHPSGKLALSVGTDKTLRTWNLIEGRSAFIKNIKENAHIVEWSPSGGKYIVVVQNKVDVYRLGTASVSGTITNGKRISSVTFLSDSVLAVAGDEEVVRIFDCDSLECLCEFRAHENRVKDMVSFEVPDHHVLVTASNDGFIKMWTLPQDKKVPPSLLCEAKTGARLTCLTVWLDRAANGMASLPPAAEPCPDQPKTIEKESGDTVQEETSEPNSEKSDVSGDSKQPTKGNSPVTAKKRKMATMSEKKRKKKMSLTWQIPDFSSLSECPFDGILHVPVRRKYLLP | failed
18 | MELVHGISTHFIQSKKFKTNKITVRFTAPLSLDTIAGHMLSASMLETANQMYPTSQDLRRHLASLYGTDMSTNCFRRGQSHIIELTFTYVRDEFLSRKNVLTSQILELVKETLFSPVVVDNGFDPALFEIEKKQ | failed
